# Assay results as given in patent US8394929B2, “Nogo receptor-mediated blockade of axonal growth” (Yale University, priority 2000, dated 2013).
# Like-named read-outs stand apart in the source and are kept apart here.
# T1: mouse NgR (Mus musculus, UniProt Q99PI8)
# T1 construct: expressed in transfected cells; host or cells: COS-7
# T1 sequence (Q99PI8 27-473): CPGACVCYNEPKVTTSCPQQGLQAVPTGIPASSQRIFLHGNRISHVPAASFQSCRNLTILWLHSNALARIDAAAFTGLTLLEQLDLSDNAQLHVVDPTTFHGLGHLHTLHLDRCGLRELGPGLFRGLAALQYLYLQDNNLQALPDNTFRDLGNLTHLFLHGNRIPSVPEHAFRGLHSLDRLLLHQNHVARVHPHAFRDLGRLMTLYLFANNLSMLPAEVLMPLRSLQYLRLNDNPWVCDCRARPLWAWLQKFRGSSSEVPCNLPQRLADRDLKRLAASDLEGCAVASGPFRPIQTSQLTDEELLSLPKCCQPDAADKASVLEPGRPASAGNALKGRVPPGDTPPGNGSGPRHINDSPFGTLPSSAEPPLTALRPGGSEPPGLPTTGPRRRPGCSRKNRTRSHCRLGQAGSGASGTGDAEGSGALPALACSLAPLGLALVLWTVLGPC
# How the values were obtained:
# [1] = test system: chick E12 dorsal root ganglion growth cones; test: Growth cone collapse assay in chick dorsal root ganglion explants; assay type: cell-based
# Method: (§1) For all experiments involving cell culture, the following methods were employed. The culture of embryonic chick E10 and E12 dorsal root ganglion explants and dissociated neurons utilized methods described for E7 dorsal root ganglion cultures (Takahashi et al., (1998) Nature Neurosci. 1, 487-493; Takahashi et al., (1999) Cell 99, 59-69; Goshima et al., (1995) Nature 376, 509-514; Jin & Strittmatter, (1997) J. Neurosci. […]). NGF-differentiated PC12 cells were cultured as described (Strittmatter et al., (1994) J. Neurosci. 14, 2327-2338). Embryonic spinal cord explants (rat E10 or chick E5) were cultured for 7-14 days in the presence of PDGF-AA to induce differentiation of some cells into mature oligodendrocytes (Vartanian et al., (1999) Proc. Natl. Acad. Sci. USA 96, 731-735). The procedure for growth cone collapse assays is identical to that for analysis of Sema3A-induced growth cone collapse (Takahashi et al., (1998) Nature Neurosci. 1, 487-493; Takahashi et al., (1999) Cell 99, 59-69; Goshima et al., (1995) Nature 376, 509-514; Jin & Strittmatter, (1997) J. Neurosci. 17, 6256-6263). The method for analysis of total neurite outgrowth has also been described (Goshima et al., (1995) Nature 376, 509-514; Jin & Strittmatter, (1997) J. Neurosci. 17, 6256-6263; Strittmatter et al., (1994) J. Neurosci. 14, 2327-2338). In outgrowth assays, proteins and peptides were added one hour after plating to minimize any effect on the total number of adherent cells. To test the effect of substrate-bound GST or GST-Nogo, the protein solutions were dried on poly-L-lysine coated glass, washed and then coated with laminin. For E12 cultures, the neuronal identity of cells was verified by staining with anti-neurofilament antibodies (2H3, Develomental Studies Hybridoma Bank) and neurites were traced by observation of rhodamine-phalloidin staining of F-actin in processes.
# The expression of recombinant Nogo in HEK293T cells allows a rigorous test of whether this protein has axon outgrowth inhibiting effects. Washed membrane fractions from vector- or hNogo-A-Myc-transfected HEK293T cells were added to chick E12 dorsal root ganglion explant cultures. Growth cone morphology was assessed after a thirty minute incubation at 37° C. by fixation and rhodamine-phalloidin staining.
# Briefly, for growth cone collapse, DRG explants were plated on plastic chamber slides precoated with 100 μg ml^−1 poly-L-lysine and 10 μg ml^−1 laminin. Cultures were grown 14-16 h prior to treatment.
# [2] = test system: chick dorsal root ganglion neurons; test: Neurite outgrowth assay in chick DRG neurons; assay type: cell-based
# Method: as §1
# For neurite outgrowth assays, plastic chamber slides were coated with 100 μg ml^−1 poly-L-lysine, washed, and dried. 3 μl drops of PBS containing GST-Nogo-66 were spotted and dried. Slides were then rinsed and coated with 10 μg ml fs24^−1 laminin before addition of dissociated E12 chick DRGs. AP-fusion proteins were added at the time of cell plating. Cultures were grown for 5-7 h after which neurite outgrowth was assessed.
# [3] = molecular target: T1, mouse NgR; test: AP-fusion protein binding to COS-7 cells expressing mouse NgR
# Method: To determine if AP-fused deletion mutants of Nogo-66 bind mouse NgR (“mNgR”), COS-7 cells were transfected with a plasmid encoding the mouse NgR sequence ligated into pcDNA3.1. 48 hours after transfection, cells were washed with HBH (Hanks balanced salt solution containing 20 mM sodium Hepes, pH 7.05, and 1 mg ml^−1 bovine serum albumin) and then incubated with condition medium containing one of the AP-fusion proteins described above for 2 hours at 37° C. Cells were then washed, fixed, and left in HBH at 67° C. for 14-16 h to inactivate endogenous AP. AP-fusion protein binding to NgR expressing COS-7 cells was detected with the substrates NBT and BCIP (FIG. 13b).
# To determine whether mNgR or mNgR deletion mutants bound to hNogo-A (1055-1120), wtNgR or mNgR deletion mutants were transfected into COS-7 cells. Forty-eight hours after the transfection, the transfected COS-7 cells were washed with hanks balanced salt solution containing 20 mM sodium HEPES, pH 7.05, and 1 mg/ml bovine serum albumin (BSA) [hereinafter “HBH”]. Cells were then incubated for 2 hours at 23° C. with a conditioned medium enriched with purified AP-hNogo-A (1055-1120) diluted in HBH. AP-fusion protein was detected as previously described for AP-Sema3A (Takahashi et al., Nature Neurosci. 1:487-493, 1998).
# [4] = molecular target: T1, mouse NgR; test: as above; remark: listed apart in the source
# [5] = soluble protein or peptide added to culture
molecule,measurement,setting,value
"Peptide 140: synthetic peptide of amino acids #1055-1094 of the human NogoA protein, acetylated and amidated at the termini (Ac-RIYKGVIQAIQKSDEGHPFRAYLESEVAISEELVQKYSNS-NH2; UniProt Q9NQC3 1055-1094, looked up, fragment)",growth cone collapse activity (in words),"[1]; added to DRG explant cultures, thirty minutes",does not induce significant growth cone collapse
same,neurite/axon outgrowth (in words),[2]; [5],no observable effect on neurite outgrowth
"AP-Nogo: fusion protein of His6 tag, placental alkaline phosphatase (AP) and the 66 amino acid active domain of Nogo (protein) HHHHHHIIPVEEENPDFWNREAAEALGAAKKLQPAQTAAKNLIIFLGDGMGVSTVTAARILKGQKKDKLGPEIPLAMDRFPYVALSKTYNVDKHVPDSGATATAYLCGVKGNFQTIGLSAAARFNQCNTTRGNEVISVMNRAKKAGKSVGVVTTTRVQHASPAGTYAHTVNRNWYSDADVPASARQEGCQDIATQLISNMDIDVILGGGRKYMFRMGTPDPEYPDDYSQGGTRLDGKNLVQEWLAKRQGARYVWNRTELMQASLDPSVTHLMGLFEPGDMKYEIHRDSTLDPSLMEMTEAALRLLSRNPRGFFLFVEGGRIDHGHHESRAYRALTETIMFDDAIERAGQLTSEEDTLSLVTADHSHVFSFGGYPLRGSSIFGLAPGKARDRKAYTVLLYGNGPGYVLKDGARPDVTESESGSPEYRQQSAVPLDEETHAGEDVAVFARGPQAHLVHGVQEQTFIAHVMAFAACLEPYTACDLAPPAGTTDAAHPGRIYKGVIQAIQKSDEGHPFRAYLESEVAISEELVQKYSNSALGHVNCTIKELRRLFLVDDLVDSLK",relative potency in growth cone collapse (comparator in the words),[1],slightly more potent than GST-Nogo
same,growth cone collapse (in words),"[1]; conditioned medium, AP-fusion protein final concentration 20 nM, E12 chick DRG",potent growth-cone-collapsing agent
same,binding to NgR expressing COS-7 cells (in words),[3],selective binding
same,binding to NgR expressing COS-7 cells (in words),[3]; listed as AP-hNogo-A (1055-1120),bound
"NgR-ecto: secreted fragment of amino acid residues 1-348 of the murine NgR, in HEK293T conditioned medium (protein, left off: small tags and cut ends, secreted fragment of amino acid residues 1-348 of the murine NgR, in HEK293T conditioned medium) CPGACVCYNEPKVTTSCPQQGLQAVPTGIPASSQRIFLHGNRISHVPAASFQSCRNLTILWLHSNALARIDAAAFTGLTLLEQLDLSDNAQLHVVDPTTFHGLGHLHTLHLDRCGLRELGPGLFRGLAALQYLYLQDNNLQALPDNTFRDLGNLTHLFLHGNRIPSVPEHAFRGLHSLDRLLLHQNHVARVHPHAFRDLGRLMTLYLFANNLSMLPAEVLMPLRSLQYLRLNDNPWVCDCRARPLWAWLQKFRGSSSEVPCNLPQRLADRDLKRLAASDLEGCAVASGPFRPIQTSQLTDEELLSLPKCCQPDAADKASVLE",reduction of binding of AP-Nogo-66,"[4]; 0.5 nM AP-Nogo-66, NgR-ecto conditioned medium, COS-7 cells expressing full length NgR",80%
"GST-Nogo: GST fusion protein of the 66 amino acid lumenal-extracellular fragment of Nogo-A, expressed in E. coli (protein, also: GST fusion protein, GST fusion protein of the 66 amino acid lumenal-extracellular fragment of Nogo-A, expressed in E. coli) RIYKGVIQAIQKSDEGHPFRAYLESEVAISEELVQKYSNSALGHVNCTIKELRRLFLVDDLVDSLK",relative potency in growth cone collapse (comparator in the words),[1],even more potent than the urea-extracted protein
same,relative potency in growth cone collapse (comparator in the words),[1]; listed as GST-Nogo-66,two orders of magnitude more potent than Amino-Nogo
same,concentration acutely altering growth cone morphology (as low as),[1]; soluble GST-Nogo purified on glutathione-Sepharose resin,1 nM
same,growth cone morphology (in words),"[1]; soluble form at 100 nM, chick E12 DRG",collapses chick E12 dorsal root ganglion growth cones
same,EC50,"[1]; urea-extracted GST-Nogo, chick E12 dorsal root ganglion neurons, read-out: EC50 growth cone collapsing activity",50 nM
same,neurite/axon outgrowth (in words),[2]; [5],blocked
same,neurite/axon outgrowth (in words),"[2]; soluble protein or peptide added to culture, listed as Nogo-66",nearly abolishes axonal extension
same,neurite/axon outgrowth (in words),[2]; substrate-bound / coated surfaces,reduced to undetectable levels
same,neurite/axon outgrowth (in words),"[2]; substrate-bound / coated surfaces, listed as GST-hNogoA (residues #1055-1120)",dramatically reduces growth
same,displacement of AP-Nogo (in words),[4],displaces AP-Nogo
